In the Human Domainome abundance scans (Beltran et al. 2025):
± gives the uncertainty stated by the source.

B1: Far upstream element-binding protein 2, residues 142 to 214; numbered along this chain, Q92945 (parent)
chain: RTSMTEEYRVPDGMVGLIIGRGGEQINKIQQDSGCKVQISPDSGGLPERSVSLTGAPESVQKAKMMLDDIVSR

Variants of: B1
Assay: abundance fitness (aPCA) (normalised: wild type 0, dead -1); higher = more abundant; growth selection in yeast, the domain comes from the species named
Conditions: Homo sapiens

| Variant | abundance fitness |
| --- | --- |
| RTSMTEEYRVPDGMVGGIIGRGGEQINKIQQDSGCKVQISPDSGGLPERSVSLTGAPESVQKAKMMLDDIVSR [L17G] | -0.023 ± 0.043 |
| RTSMTEEYRVPDGMVGLIIGRGGEQINKIQQPSGCKVQISPDSGGLPERSVSLTGAPESVQKAKMMLDDIVSR [D32P] | -1.1 ± 0.11 |
| RTSMTEEYRVPDGMVGLIIGRGGEQINKIQQDSGCKVQISPDSGGLPERSVSLTGAPESVQCAKMMLDDIVSR [K62C] | -0.288 ± 0.062 |
| RTSMTEEYRVPDGMVGLYIGRGGEQINKIQQDSGCKVQISPDSGGLPERSVSLTGAPESVQKAKMMLDDIVSR [I18Y] | -0.494 ± 0.079 |
| RTSMTEEYRVPDGMVGLNIGRGGEQINKIQQDSGCKVQISPDSGGLPERSVSLTGAPESVQKAKMMLDDIVSR [I18N] | -0.345 ± 0.068 |
| RTSMTEEYRVPDGMVGLCIGRGGEQINKIQQDSGCKVQISPDSGGLPERSVSLTGAPESVQKAKMMLDDIVSR [I18C] | -0.595 ± 0.066 |
| RTSTTEEYRVPDGMVGLIIGRGGEQINKIQQDSGCKVQISPDSGGLPERSVSLTGAPESVQKAKMMLDDIVSR [M4T] | -0.063 ± 0.049 |
| RTSMTEEYRVPDGMVGLIIGRGGEQINHIQQDSGCKVQISPDSGGLPERSVSLTGAPESVQKAKMMLDDIVSR [K28H] | -0.162 ± 0.077 |
| RTSMTEEYRVPDYMVGLIIGRGGEQINKIQQDSGCKVQISPDSGGLPERSVSLTGAPESVQKAKMMLDDIVSR [G13Y] | -0.005 ± 0.091 |
| RTSMTEEYRVPDGMVGLIIGRGGEQINKIQQDSGCKVQISPDSGGLPERSVSLTGAPESVQKAKMMLDDTVSR [I70T] | -0.344 ± 0.052 |
| RTSMTEEYRVPDGMVGLIIGRGGEQINKIQQDSGCKVQISPDSGGLPERSVSLTGAPESVQKAKMMLDDGVSR [I70G] | -0.497 ± 0.045 |
| RTSMTEEYRVPDGMVGLIIGRGGEQINKIQQDSGCKVQISPDSGGLPERSVSLTGAPESVQKAKMWLDDIVSR [M66W] | -0.473 ± 0.054 |
| RTSMTEEYRVPDGMVDLIIGRGGEQINKIQQDSGCKVQISPDSGGLPERSVSLTGAPESVQKAKMMLDDIVSR [G16D] | 0.136 ± 0.064 |
| RTSMTEEYRVPDGMVGLIIGRGGEQINKIQQDSGCKVQISCDSGGLPERSVSLTGAPESVQKAKMMLDDIVSR [P41C] | -0.017 ± 0.084 |
| RTSMTEEYRVPDGMVGLIIGRGGEQINKIQQDSGCKVQISPDSGGLPERSVSLTGAPESVQKTKMMLDDIVSR [A63T] | -0.69 ± 0.078 |
| RTSMTEEYRVPDGMVGLIIGRGGEQINKIQQDSGCKVQISPDSGGLPERSVSLTGAPESVQKWKMMLDDIVSR [A63W] | -1.55 ± 0.2 |
| RTWMTEEYRVPDGMVGLIIGRGGEQINKIQQDSGCKVQISPDSGGLPERSVSLTGAPESVQKAKMMLDDIVSR [S3W] | 0.05 ± 0.048 |
| RTKMTEEYRVPDGMVGLIIGRGGEQINKIQQDSGCKVQISPDSGGLPERSVSLTGAPESVQKAKMMLDDIVSR [S3K] | 0.219 ± 0.058 |
| RTSMTEEYRVPDGMVGLIIGRGGEQINKIQQDSGCKVQISPDSGGLPEMSVSLTGAPESVQKAKMMLDDIVSR [R49M] | -0.127 ± 0.062 |

| Variant | abundance fitness |
| --- | --- |
| RTSMTEEYRVPDGMVGLIIGRGGEFINKIQQDSGCKVQISPDSGGLPERSVSLTGAPESVQKAKMMLDDIVSR [Q25F] | -0.181 ± 0.13 |
| RTSMTEEYRVPDGMVGLIIGRGGEWINKIQQDSGCKVQISPDSGGLPERSVSLTGAPESVQKAKMMLDDIVSR [Q25W] | -0.17 ± 0.076 |
| RISMTEEYRVPDGMVGLIIGRGGEQINKIQQDSGCKVQISPDSGGLPERSVSLTGAPESVQKAKMMLDDIVSR [T2I] | -0.04 ± 0.076 |
| RTSMTEEYRVPDGMVGLIIGRGGEQINKIQQDSGCKVQISPDSGGLPERSVSLTGMPESVQKAKMMLDDIVSR [A56M] | -0.154 ± 0.08 |
| RTSMTEEYRVPDGMVGLIINRGGEQINKIQQDSGCKVQISPDSGGLPERSVSLTGAPESVQKAKMMLDDIVSR [G20N] | -0.389 ± 0.1 |
| RTSMTEEYRVPDGMVGLIIHRGGEQINKIQQDSGCKVQISPDSGGLPERSVSLTGAPESVQKAKMMLDDIVSR [G20H] | -0.576 ± 0.099 |
| RTSMTEEYRVPDGMVGLIIVRGGEQINKIQQDSGCKVQISPDSGGLPERSVSLTGAPESVQKAKMMLDDIVSR [G20V] | -1.38 ± 0.076 |
| RTSMTEEYRVPDGMVGLIIGRGGEQINKIQQDSGCKVQISPDSGGLPERSVSLTGAPESVQKAKMMLDDIVWR [S72W] | -0.191 ± 0.052 |
| RTSMTEEYRVPDGMVGLIIGRGGEQINKIQQDSGCKVQISPDSGCLPERSVSLTGAPESVQKAKMMLDDIVSR [G45C] | -0.168 ± 0.064 |
| RTSMTEEYRVPDGMVGLIIGRGGEQINKIQQDSGCKVQISPDSGGLPERSVSLTGAPESVQKAYMMLDDIVSR [K64Y] | -0.926 ± 0.12 |
| RTSMTEEYRVPDGMVGLIIGRGGEQINKIQQDSGCKVQISPDSGGLPERSVSLTGAPESVQKAIMMLDDIVSR [K64I] | -0.275 ± 0.075 |
| RTSMTEEYRVPDGMVGLIIGRGGEQINKIQQDSGCKVQISPDSGGLPERSVSLTGAPESNQKAKMMLDDIVSR [V60N] | -0.636 ± 0.1 |
| RTSMTEEYRVPDGMVGLIIGRGGEQINKIQQDSGCKVQISPDSGGQPERSVSLTGAPESVQKAKMMLDDIVSR [L46Q] | -0.052 ± 0.06 |
| RTSMTEEYRVPDGMVGLIIGRGGEQINKIQQDSGCKVQIKPDSGGLPERSVSLTGAPESVQKAKMMLDDIVSR [S40K] | -0.007 ± 0.065 |
| RTSMTEEYRVPDGMVGLIIGRGGEQINKIQQDSGCKVQITPDSGGLPERSVSLTGAPESVQKAKMMLDDIVSR [S40T] | -0.059 ± 0.053 |
| RTSMTEEYRVPDGMVGLIIGRGGEQINKIQQDSGCKVQIQPDSGGLPERSVSLTGAPESVQKAKMMLDDIVSR [S40Q] | 0.009 ± 0.055 |
| RTSMTEEYRVPDGMVGLIIGRGGEQINKIQQDSGCKVQISPDSGGLPERSVSLTGAPESVQKAKDMLDDIVSR [M65D] | 0.02 ± 0.072 |
| RTSMTEEYRVPDGMVGLIIGRGGEQINKIQQDSGCKVQISPDSGGLPERSVSLTGAMESVQKAKMMLDDIVSR [P57M] | -0.225 ± 0.066 |
